Our source for the Kd values is PMC10786891, “Massively parallel profiling of RNA-targeting CRISPR-Cas13d”.

Residue numbers refer to the chain shown, from its start. Names and notes keep the numbering of the source.

In general, Kd refers to the constant that tells how readily two partners part at equilibrium. A high value points to weaker binding.

T1: EsCas13d, nuclease-dead (Eubacterium siraeum, UniProt B0MS50, R295A;H300A;R849A;H854A)
T1 sequence: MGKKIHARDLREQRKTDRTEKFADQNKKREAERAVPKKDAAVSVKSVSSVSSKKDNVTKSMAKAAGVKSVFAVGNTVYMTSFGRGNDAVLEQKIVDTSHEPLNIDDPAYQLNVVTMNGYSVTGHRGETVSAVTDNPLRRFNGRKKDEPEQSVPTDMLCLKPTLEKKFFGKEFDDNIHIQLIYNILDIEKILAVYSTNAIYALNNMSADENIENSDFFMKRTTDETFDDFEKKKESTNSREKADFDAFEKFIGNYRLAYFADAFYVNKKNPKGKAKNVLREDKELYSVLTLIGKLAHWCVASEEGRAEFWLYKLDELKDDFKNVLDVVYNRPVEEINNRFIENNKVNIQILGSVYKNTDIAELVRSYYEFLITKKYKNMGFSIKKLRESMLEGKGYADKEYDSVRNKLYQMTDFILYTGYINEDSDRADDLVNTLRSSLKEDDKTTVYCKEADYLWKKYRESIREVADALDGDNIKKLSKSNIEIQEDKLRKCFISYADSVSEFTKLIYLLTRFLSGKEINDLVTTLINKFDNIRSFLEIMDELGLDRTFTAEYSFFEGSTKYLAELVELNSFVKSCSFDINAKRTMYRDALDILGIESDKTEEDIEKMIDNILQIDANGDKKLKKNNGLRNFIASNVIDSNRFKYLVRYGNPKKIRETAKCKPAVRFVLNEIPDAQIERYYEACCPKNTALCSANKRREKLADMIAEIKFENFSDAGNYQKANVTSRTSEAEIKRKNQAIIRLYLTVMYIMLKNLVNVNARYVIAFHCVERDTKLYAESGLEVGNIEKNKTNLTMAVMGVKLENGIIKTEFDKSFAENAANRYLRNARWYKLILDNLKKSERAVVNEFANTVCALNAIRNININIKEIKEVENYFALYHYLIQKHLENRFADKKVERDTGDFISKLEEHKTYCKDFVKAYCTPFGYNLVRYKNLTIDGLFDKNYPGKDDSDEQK

B1: target 1 insC 3' of 16,insG 3' of 7 (mixed)
RNA 1: CACCCGUGCAAAAAUGCAGGGGUCUAAAACUGAGCGGAUAACCUCUCUAUGG
RNA 2: GGGAAUGGAUCCACAUCUACGAAUUCGUACCAUAGACGAGGUUAUCGCGCUCACCGAGAUCGGAAGAGCACACGU
B2: target 1 C21U,C22U (mixed)
RNA 1: B1 RNA 1
RNA 2: GGGAAUGGAUCCACAUCUACGAAUUCGUAUUAUAGAGAGGUUAUCCGCUCACCGAGAUCGGAAGAGCACACGU
B3: target 1 insU 3' of 22,insA 3' of 19 (mixed)
RNA 1: B1 RNA 1
RNA 2: GGGAAUGGAUCCACAUCUACGAAUUCGUACUCAUAAGAGAGGUUAUCCGCUCACCGAGAUCGGAAGAGCACACGU
B4: target 1 insA 3' of 13,insC 3' of 10 (mixed)
RNA 1: B1 RNA 1
RNA 2: B3 RNA 2 with U31C, C32A, A33U, U34A, A35G, G42U, U44C
B5: target 2 MT 5'PFS AUA 3'PFS UAA (mixed)
RNA 1: CACCCGUGCAAAAUUGCAGGGGUCUAAAACCUUCUCCAAAUUGUUUCAUCCU
RNA 2: GGGAAUGGAUCCACAUCUACGAAUUCAUAAGGAUGAAACAAUUUGGAGAAGUAAAGAUCGGAAGAGCACACGU
B6: target 2 MT 5'PFS GUA 3'PFS AAG (mixed)
RNA 1: B5 RNA 1
RNA 2: B5 RNA 2 with A27G, U52A, A54G
B7: target 2 MT 5'PFS AGU 3'PFS UCU (mixed)
RNA 1: B5 RNA 1
RNA 2: B5 RNA 2 with U28G, A29U, A53C, A54U
B8: target 2 MT 5'PFS AUC 3'PFS ACA (mixed)
RNA 1: B5 RNA 1
RNA 2: B5 RNA 2 with A29C, U52A, A53C
B9: target 2 MT 5'PFS GGG 3'PFS UUU (mixed)
RNA 1: B5 RNA 1
RNA 2: B5 RNA 2 with A27G, U28G, A29G, A53U, A54U
B10: target 2 MT 5'PFS CAC 3'PFS CCU (mixed)
RNA 1: B5 RNA 1
RNA 2: B5 RNA 2 with A27C, U28A, A29C, U52C, A53C, A54U
B11: target 2 MT 5'PFS GUA 3'PFS AAA (mixed)
RNA 1: B5 RNA 1
RNA 2: B5 RNA 2 with A27G, U52A
B12: target 2 MT 5'PFS CAU 3'PFS AAU (mixed)
RNA 1: B5 RNA 1
RNA 2: B5 RNA 2 with A27C, U28A, A29U, U52A, A54U
B13: target 2 MT 5'PFS GUA 3'PFS AAU (mixed)
RNA 1: B5 RNA 1
RNA 2: B5 RNA 2 with A27G, U52A, A54U
B14: target 2 MT 5'PFS GGG 3'PFS UUA (mixed)
RNA 1: B5 RNA 1
RNA 2: B5 RNA 2 with A27G, U28G, A29G, A53U
B15: target 2 MT 5'PFS GAC 3'PFS UGC (mixed)
RNA 1: B5 RNA 1
RNA 2: B5 RNA 2 with A27G, U28A, A29C, A53G, A54C
B16: target 2 MT 5'PFS CAC 3'PFS CCC (mixed)
RNA 1: B5 RNA 1
RNA 2: B5 RNA 2 with A27C, U28A, A29C, U52C, A53C, A54C
B17: target 2 MT 5'PFS UAG 3'PFS AGG (mixed)
RNA 1: B5 RNA 1
RNA 2: B5 RNA 2 with A27U, U28A, A29G, U52A, A53G, A54G
B18: target 2 MT 5'PFS AGG 3'PFS AGU (mixed)
RNA 1: B5 RNA 1
RNA 2: B5 RNA 2 with U28G, A29G, U52A, A53G, A54U
B19: target 2 MT 5'PFS UAG 3'PFS AGC (mixed)
RNA 1: B5 RNA 1
RNA 2: B5 RNA 2 with A27U, U28A, A29G, U52A, A53G, A54C
B20: target 2 MT 5'PFS AGU 3'PFS UCC (mixed)
RNA 1: B5 RNA 1
RNA 2: B5 RNA 2 with U28G, A29U, A53C, A54C
B21: target 2 MT 5'PFS UUG 3'PFS UCA (mixed)
RNA 1: B5 RNA 1
RNA 2: B5 RNA 2 with A27U, A29G, A53C
B22: target 2 MT 5'PFS UUG 3'PFS UCU (mixed)
RNA 1: B5 RNA 1
RNA 2: B5 RNA 2 with A27U, A29G, A53C, A54U
B23: target 2 MT 5'PFS AUC 3'PFS CAU (mixed)
RNA 1: B5 RNA 1
RNA 2: B5 RNA 2 with A29C, U52C, A54U
B24: target 2 MT 5'PFS CAU 3'PFS AAC (mixed)
RNA 1: B5 RNA 1
RNA 2: B5 RNA 2 with A27C, U28A, A29U, U52A, A54C
B25: target 2 MT 5'PFS AUA 3'PFS UAU (mixed)
RNA 1: B5 RNA 1
RNA 2: B5 RNA 2 with A54U
B26: target 2 MT 5'PFS CAC 3'PFS CCA (mixed)
RNA 1: B5 RNA 1
RNA 2: B5 RNA 2 with A27C, U28A, A29C, U52C, A53C
B27: target 2 MT 5'PFS AUC 3'PFS CAG (mixed)
RNA 1: B5 RNA 1
RNA 2: B5 RNA 2 with A29C, U52C, A54G
B28: target 2 MT 5'PFS CAU 3'PFS CAG (mixed)
RNA 1: B5 RNA 1
RNA 2: B5 RNA 2 with A27C, U28A, A29U, U52C, A54G
B29: target 2 MT 5'PFS GUA 3'PFS CCG (mixed)
RNA 1: B5 RNA 1
RNA 2: B5 RNA 2 with A27G, U52C, A53C, A54G
B30: target 2 MT 5'PFS CAU 3'PFS AAA (mixed)
RNA 1: B5 RNA 1
RNA 2: B5 RNA 2 with A27C, U28A, A29U, U52A
B31: target 2 MT 5'PFS AAA 3'PFS UAC (mixed)
RNA 1: B5 RNA 1
RNA 2: B5 RNA 2 with U28A, A54C
B32: target 2 MT 5'PFS GAC 3'PFS UGA (mixed)
RNA 1: B5 RNA 1
RNA 2: B5 RNA 2 with A27G, U28A, A29C, A53G
B33: target 2 MT 5'PFS AUC 3'PFS ACU (mixed)
RNA 1: B5 RNA 1
RNA 2: B5 RNA 2 with A29C, U52A, A53C, A54U
B34: target 2 MT 5'PFS UAG 3'PFS AGA (mixed)
RNA 1: B5 RNA 1
RNA 2: B5 RNA 2 with A27U, U28A, A29G, U52A, A53G
B35: target 2 MT 5'PFS GGG 3'PFS UUC (mixed)
RNA 1: B5 RNA 1
RNA 2: B5 RNA 2 with A27G, U28G, A29G, A53U, A54C
B36: target 2 MT 5'PFS AUU 3'PFS CGC (mixed)
RNA 1: B5 RNA 1
RNA 2: B5 RNA 2 with A29U, U52C, A53G, A54C

In the series the target is T1, EsCas13d, nuclease-dead. The experiment in a line: crRNA (strand 1, pre-loaded); Mg2+; 40 mM Tris-HCl pH 7.5, 150 mM NaCl, 6 mM MgCl2, 1 mM DTT, 0.1% Tween-20, 0.2 mg/ml BSA; 25 C; 10 min per concentration, then washed. As to conditions: tags: His6-TwinStrep-SUMO cleaved; N-terminal SNAP kept (SNAP-Surface 488); label: 3' end held by stalled T7 RNA polymerase.
On to B1, for which the affinity, expressed as Kd, was 66 ± 14 nM.
In the case of B2 it was 29 ± 4 nM.
For B3 the value was 80 ± 14 nM; for B4, 9.2 ± 0.9 nM; for B5, 5.5 ± 1.1 nM.
For B6 the value was 7 ± 0.6 nM.
In turn, B7 returned a Kd of 21.3 ± 3.4 nM.
In the case of B8 it was approximately 70 nM.
For B9 the value was 48 ± 12 nM.
For B10 the value was approximately 33 nM; for B11, 5.5 ± 0.7 nM.
For B12, binding was characterised by a dissociation constant (Kd) of 4.4 ± 0.7 nM.
For B13 the value was 5.8 ± 0.6 nM.
For B14 the value was 14.9 ± 1.7 nM; for B15, 14.4 ± 2.7 nM.
In the case of B16 it was 25 ± 10 nM; in that of B17, 2.74 ± 0.24 nM; in that of B18, 4.04 ± 0.32 nM.
B19 gave a dissociation constant (Kd) of 1.91 ± 0.21 nM.
For B20 the value was approximately 51 nM; for B21, approximately 70 nM.
In turn, B22 returned a dissociation constant Kd of 27.6 ± 3.4 nM.
For B23 the value was 78 ± 27 nM.
For B24 the value was 4.2 ± 0.6 nM; for B25, 7.1 ± 1.4 nM.
For the molecule B26, the dissociation constant (Kd) was found to be 4.5 ± 1.2 nM.
In turn, B27 came in with a Kd of 80 ± 40 nM.
For B28, binding was characterised by a dissociation constant (Kd) of 3.25 ± 0.3 nM.
For B29 the value was 9.6 ± 0.6 nM.
For B30 the value was 4.2 ± 0.7 nM; for B31, approximately 6.7 nM; for B32, 12.9 ± 2 nM.
For B33 the value was approximately 41 nM; for B34, 2.53 ± 0.33 nM.
On to B35, for which the dissociation constant Kd worked out at 42 ± 15 nM.
In the case of B36 it was 7.8 ± 0.6 nM.
